What is called EC50 (read off the curve) is the concentration at which the effect is half-maximal. A high value points to a need for much substance.

The test deals with eOD-GT8 60 mer (Aquifex aeolicus; HIV-1). Put plainly: ELISA, antibody titration. Background: In an ELISA, binding on a coated surface is turned into a signal by an enzyme label.

Regarding VRC01 (antibody), the EC50 (read off the curve) is 0.2 µg/mL.
The value for “VRC-PG04g1 (v-gene germline revertant of VRC-PG04) (antibody)” was 0.5 µg/mL.

The record behind these values is US20200121783A1.
